Like-named read-outs stand apart in the source and are kept apart here.
Columns and labels:
monkey CD33 protein [1] = target: T1, monkey CD33 protein (monkey); assay: SPR (Biacore), antibody captured on Protein A chip, monkey CD33 protein as analyte
T1 construct: The printed catalogue numbers for murine and monkey CD33 may be interchanged; also called monkey CD33-His protein
Protocol: (§1) The sample and running buffer was HBS-EP+ (10 mM HEPES, 150 mM NaCl, 3 mM EDTA, 0.05% surfactant P20) (GE Healthcare; BR-1006-69). The flow cell was set at 25° C. The sample block was set at 16° C. Both were pretreated with the running buffer. In each cycle, first, the antibody to be tested was captured using the Protein A chip, and then a single concentration of CD33 antigen protein was injected. The association and dissociation processes of the antibody with the antigen protein were recorded, and finally, the chip was regenerated using Glycine pH 1.5 (GE Healthcare; BR-1003-54). The association was determined by injecting different concentrations of recombinant human CD33-his in the solution and maintaining for 240 s, wherein the flow rate was 30 μL/min, and the protein was diluted in a 1:1 dilution ratio from 200 nM to obtain 5 concentrations in total. The dissociation phase was monitored for up to 600 s and triggered by switching from the sample solution to the running buffer. The surface was regenerated by washing with 10 mM glycine solution (pH 1.5) at a flow rate of 30 μL/min for 30 s. The difference in bulk refractive index was corrected by subtracting the responses obtained from the […]. Blank injections were also subtracted (=double reference). To calculate the apparent KD and other kinetic parameters, the Langmuir 1:1 model was used.
(§2) The assay on affinity of VHH-Fc antibodies for monkey CD33 protein (Sino Biological, Cat. No. 50712-M08H) was performed according to the method in Example 7.1.

monkey CD33 protein [2] = target: T1, monkey CD33 protein; assay: ELISA, coated monkey CD33, antibody 0.01 nM
monkey CD33 protein [3] = target: T1, monkey CD33 protein; assay: ELISA, coated monkey CD33, antibody 10 nM
monkey CD33 protein [4] = target: T1, monkey CD33 protein; assay: ELISA, coated monkey CD33, antibody 0.001 nM
monkey CD33 protein [5] = target: T1, monkey CD33 protein; assay: SPR (Biacore), antibody captured on Protein A chip, monkey CD33 protein as analyte; remark: listed apart in the source
Protocol: as §1, §2

[6] = target: T2, monkey CD33 on HEK293T-monkey CD33 cells (monkey); assay: FACS on HEK293T-monkey CD33 cells
T2 construct: whole, on cells

human CD33-His [7] = target: T3, human CD33-His (human, UniProt P20138 18-259); assay: SPR (Biacore), antibody captured on Protein A chip, human CD33-his as analyte
T3 construct: range 18-259; Bought protein; also called human CD33-his protein; hCD33-his; not shown: His tag
Protocol: as §1

monkey CD33 protein [8] = target: T1, monkey CD33 protein; assay: ELISA, coated monkey CD33, antibody 100 nM
monkey CD33 protein [9] = target: T1, monkey CD33 protein; assay: ELISA, coated monkey CD33, antibody 1 nM
monkey CD33 protein [10] = target: T1, monkey CD33 protein; assay: ELISA, coated monkey CD33, antibody 10 nM; remark: listed apart in the source
monkey CD33 protein [11] = target: T1, monkey CD33 protein; assay: ELISA, coated monkey CD33, antibody 0.1 nM
monkey CD33 protein [12] = target: T1, monkey CD33 protein; assay: ELISA, coated monkey CD33, antibody 0.001 nM; remark: listed apart in the source
human CD33-His [13] = target: T3, human CD33-His; assay: SPR (Biacore), antibody captured on Protein A chip, human CD33-his as analyte; remark: listed apart in the source
Protocol: as §1

monkey CD33 protein [14] = target: T1, monkey CD33 protein; assay: ELISA, coated monkey CD33, antibody 100 nM; remark: listed apart in the source
monkey CD33 protein [15] = target: T1, monkey CD33 protein; assay: ELISA, coated monkey CD33, antibody 0.0001 nM
monkey CD33 protein [16] = target: T1, monkey CD33 protein; assay: ELISA, coated monkey CD33, antibody 0.01 nM; remark: listed apart in the source
monkey CD33 protein [17] = target: T1, monkey CD33 protein; assay: ELISA, coated monkey CD33, antibody 1 nM; remark: listed apart in the source
[18] = target: T2, monkey CD33 on HEK293T-monkey CD33 cells; assay: FACS on HEK293T-monkey CD33 cells; remark: listed apart in the source
monkey CD33 protein [19] = target: T1, monkey CD33 protein; assay: ELISA, coated monkey CD33, antibody 0.1 nM; remark: listed apart in the source
monkey CD33 protein [20] = target: T1, monkey CD33 protein; assay: ELISA, coated monkey CD33, antibody 0.0001 nM; remark: listed apart in the source

T3 sequence (P20138 18-259 limits assumed): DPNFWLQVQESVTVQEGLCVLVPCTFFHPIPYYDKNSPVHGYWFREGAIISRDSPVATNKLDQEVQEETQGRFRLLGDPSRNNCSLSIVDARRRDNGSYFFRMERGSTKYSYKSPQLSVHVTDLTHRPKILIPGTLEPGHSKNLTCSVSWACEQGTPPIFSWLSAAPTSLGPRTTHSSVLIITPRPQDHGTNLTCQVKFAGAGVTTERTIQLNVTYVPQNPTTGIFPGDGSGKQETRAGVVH

B1: C33B904 (antibody, human IgG1, kappa, V domains shown)
VH: EVQLVESGGGLVQPGRSLRLSCAASGFTFDDYAMHWVRQAPGKGLEWVSGIGWSGGSIVYADSVKGRFTISRDNAKNSLYLQMNSLRAEDTALYYCAKDSPYGDFFDYWGQGTLVTVSS
VL: DIVMTQSPDSLAVSLGERATINCKSSQTVFYSSNNKNYLAWYQQKPGQPPKLLISWASTRKSGVPDRFSGSGSGTDFTLTVSSLQAEDVAVYYCQHYYSTPYTFGQGTKLEIKR
notes: Control antibody, intact human IgG1; variable regions from US20190382481A1; also called C33B904 hIgG1; C331B904
- Kd (monkey CD33 protein [1]): 0.492 nM
- koff (monkey CD33 protein [1]): 0.000632 s⁻¹
- kon (monkey CD33 protein [1]): 1.29e+06 M⁻¹ s⁻¹
- OD450 (monkey CD33 protein [2]): 0.29 OD450
- OD450 (monkey CD33 protein [3]): 3.23 OD450
- OD450 (monkey CD33 protein [4]): 0.06 OD450
- Kd (monkey CD33 protein [5]): 0.494 nM
- koff (monkey CD33 protein [5]): 0.000497 s⁻¹
- kon (monkey CD33 protein [5]): 1.01e+06 M⁻¹ s⁻¹
- EC50 [6]: 5.7 nM
- Max MFI [6]: 3590 MFI
- Kd (human CD33-His [7]): 0.155 nM
- koff (human CD33-His [7]): 7.44e-05 s⁻¹
- kon (human CD33-His [7]): 479000 M⁻¹ s⁻¹
- OD450 (monkey CD33 protein [8]): 3.06 OD450
- OD450 (monkey CD33 protein [9]): 2.52 OD450
- OD450 (monkey CD33 protein [10]): 3.09 OD450
- OD450 (monkey CD33 protein [11]): 1.15 OD450
- OD450 (monkey CD33 protein [12]): 0.07 OD450
- Kd (human CD33-His [13]): 0.157 nM
- koff (human CD33-His [13]): 4.08e-05 s⁻¹
- kon (human CD33-His [13]): 260000 M⁻¹ s⁻¹
- OD450 (monkey CD33 protein [14]): 3.4 OD450
- OD450 (monkey CD33 protein [15]): 0.06 OD450
- OD450 (monkey CD33 protein [16]): 0.15 OD450
- OD450 (monkey CD33 protein [17]): 2.73 OD450
- EC50 [18]: 4.8 nM
- Max MFI [18]: 7880 MFI
- OD450 (monkey CD33 protein [19]): 0.99 OD450
- OD450 (monkey CD33 protein [20]): 0.04 OD450
